In the nanobody polyreactivity screen of Harvey et al. (2022):

Assay: yeast display, Sf9 membrane polyspecificity reagent, FACS + sequencing; frameworks hold sequencing errors
Summary of the method: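 A synthetic nanobody library was expressed on Saccharomyces cerevisiae BJ5465 by galactose induction for 36–48 hours. The library was stained for 1 hour at 4 °C with 10% biotinylated, detergent-solubilized Sf9 membrane reagent and enriched with streptavidin microbeads before FACS. Low and high (top ~1%) gates were set on anti-HA fluorescence for expression and streptavidin fluorescence for reagent binding, and each polyreactivity label reflects the gate of origin.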

Sequence	polyreactivity (PSR sort gate)
QVQRVESGGGLVQAGGSLRLSCAASGGTFAFNTMGWYRQAPGIERELVADISSGGSTNYADSVKGRFTISRDNAKNTVYLQMNRLKPVDSAVYYGNGGWDILYLQGDLDYWGQGTQVTVSS	low polyreactivity
QVQRVESGGGLVQAGGSLRLSCAASGITFKSYTMGWYRPAPGKERELVAANTASGGTTRYADSVKGRFTISRDNAKKTVYLQMNSLKPEDTAVYYCNALPFRYGKRRGYWGQGTQVTVSS	low polyreactivity
QVQRVESGGGLVQAGGSLRLSCAASGITFYPYTMGWYRQAPGKQRELVAAISSSGGSTNYADSVKGRFTISRDNAKNSDYLQMISLKPDDSAVYYCAKRYAGNASSDGDSWGQGTQVTVSS	low polyreactivity
QVQRVESGGGLVQAGGSLRLSCAASGLTFSYNAMGWYRQAPGKERELVAAITVSGGRTYYADSVKGRFTISRDNAKNTVYLQMNSLKPEDTAVYYCNADYDEGYYGYLRYDYDYWGQGTQVTVSS	high polyreactivity
QVQRVESGGGLVQAGGSLRLSCAASGNNVMGWYRQAPGKERELVAAISWSGTSTYADSVKGRFTISRDNAKNTVYIQMNSLKPEDTAVYYCAAEQQGRKYRASRRYDYWGQGTQVTVSS	low polyreactivity
QVQRVESGGGLVQAGGSLRLSCAASGRIFALYARGWYRQAPGKEREWVAAISWSGGSTFYADSVKGRFTSSRDTAKNTVYLQMTSLKPEEPAVYYCNKDHLVYPSEFYYWGQGTQVTVSS	low polyreactivity
QVQRVESGGGLVQAGGSLRLSCAASGRIFEYYAMGWSRQAPGKERELVAAINTGGNTYYADSVKGRFTISRDNAKNTVYLQMNSLKPEDTAVYYCATYPIWYGGYLSGTDYDYWGQGTQVTVSS	low polyreactivity
QVQRVESGGGLVQAGGSLRLSCAASGRIFGGYAMGWYRQAPGKERELVAGITIGGRTNYADSVKGRFTISRDNAKNTVYLQMNSLKPEDTAVYYCNTDLTGLDAEYDYWGQGTQLTVSS	low polyreactivity
QVQRVESGGGLVQAGGSLRLSCAASGRIFGYNAMGWSRPAPGKERELVASISRDGDRTYYADSVKGRVTISRDNAKNTVYLQMNSLKPEDTAVDYCATRQYRYGYLYDYWAQGTQVTVSS	high polyreactivity
QVQRVESGGGLVQAGGSLRLSCAASGRIFPSNAMGWYRQAPGKERELVAGINTRSGRTYYADSVKGRFTNSRDNAKKTDYLQLNSLKPEDTAVYYCAAARAWPLNYWYVPYDYWGQGTQVTVSS	high polyreactivity
QVQRVESGGGLVQAGGSLRLSCAASGRNFTRYAMGWYRQAPGKERELVASISRRGGSTYYADSVKGRFTISRDNAKNTVYLQMNSLKPEDTAVYYCNALVIARNIEMDYWGQGTQVTVSS	high polyreactivity
QVQRVESGGGLVQAGGSLRLSCAASGRTFAPYAMGWSRQAPGKARELVAGITYGGSRTYYADSVKGRFTISRDNAKNTVYLQMNSLKPEDPAVYYCNARSYPYQIRYVTYGAGYYYWGQGTQVTVSS	high polyreactivity
QVQRVESGGGLVQAGGSLRLSCAASGRTFAYYVMGWYRQAPGKERELVAAISWSAGSTYYADSVKGRFTISRDNAKNTVYLQMNSLKPEDTAVYYCAADYRFRYEYWGQGTQVTVSS	low polyreactivity
QVQRVESGGGLVQAGGSLRLSCAASGRTFDSYAMGWYRPAPGKERELVAVITRGVRTYYADSVKGRFTISRDNAKNTVYLQMNSLKPEDTAVYYCAKERYNANYDTSLYDYWGQGTQVTVSS	low polyreactivity
QVQRVESGGGLVQAGGSLRLSCAASGRTFWTNAMGWYRQAPGTERELVAAISGSGGSTYFADSVKGRFTISRDNAKNTVYLQMNSLKPEDTAVYYCAAYSRFRYDYWGQGTQVTVSS	high polyreactivity
QVQRVESGGGLVQAGGSLRLSCAASGRTSYYNTMGWYRQAPGKEMELVAAITGRGDSTYYADSVKGRFTISRDNAKNTVYLQMNSLKPEDTAVYYCADDELHLLYRVSKFVDYNHWGQGTQVTVSS	low polyreactivity
QVQRVESGGGLVQAGGSLRLSCAASGSIFGPYAMVWYRQAPGKERELVAAITWSVGSTYYADSVKGRFTISRDNAKTTVYLQMNSLKPEDTAVYYCNAGVLGVYTSYNGDDYWGQGTQVTVSS	low polyreactivity
QVQRVESGGGLVQAGGSLRLSCAASGSIFNPYAMGWYRQARGKVRELGAAISKSGTSTSYADSRKGRFTISRDNAKNTVYLQMNSLKPEDTAVYYCAVQVRRRYNYWGQGTQETVSS	high polyreactivity
QVQRVESGGGLVQAGGSLRLSCAASGSIFSIYAMGWNRQAPGKEMEFVAAIDSGTSTTYADSVKGRFTISRDNAKNTVYLQMNSLKPEDTAVYYCAAALYSDVAAVSTYGYYWGQGTQVTVSS	low polyreactivity
QVQRVESGGGLVQAGGSLRLSCAASGSIFTGNAMGWYRQAPGKEREFVAAIRRSGA	low polyreactivity
QVQRVESGGGLVQAGGSLRLSCAASGSIFTSNVRGWYRQAPGKERELDAAITITGTTNYADSVKGRFTISRDNAKNTVYFQMNRLKPEDTAVYYCAKDPVELSPADWRADYDYWGQGSQVTVSS	low polyreactivity
QVQRVESGGGLVQAGGSLRLSCAASGSTFIGYDMRWYRQAPGTERELVAAISYSDGTYYADSVKGRFTISRDNAKNTVYLQMNSLKPADTAVYYCAADSLYYRYDYWGQGPQVTVSS	low polyreactivity

Sequence	polyreactivity (PSR sort gate)
QVQRVESGGGLVQAGGSLRLSCAASGSTFRRYTMGWYRQAPGKERELVAAITYRGSSTYYADSVKGRFTISRDNAKNTVYLQMNSLKPEDTAVYYCAADARYTGYYYWGQGTQVTVSS	high polyreactivity
QVQRVESGGGLVQAGGSLRLSCAASGSTFYAYAMGWYRQSPGKERELVATITWSGGSTFYADSVKGRFTISRDNAKNTVYLQMNSLKPEDTAVYYCAARSRFPTIADGDYWGQGTQVTVSS	low polyreactivity
QVQRVESGGGLVQAGGSLRLSCAASGSTFYDNTMGWYRPAPGKERELVAAITGTGGNTYYADSVKGRFTISRDNAKNTDYLQMNSLKPEDTAVYYWNRVPVYYYRYGYWGQGTQVTVSS	low polyreactivity
QVQRVESGGGLVQAGGSLRLSCAASGSTLVYNDMGWYRPAPGKEREFVAAIRSNDGSTYYADSVKGRFTISRDNAKNTVYLQMNSLKPEDTAVYYCNKDVWDGYDWPEFDYSGQGTQVTVSS	low polyreactivity
QVQRVESGGGLVQAGGSLRLSCAPSAIIIYYYAMGCYRQAPGNEMELVAGISYSGGSTYADSVKGRLTISRDNAKNTVYLQMNSLKPEDTAVYFCAADYDYGGHWYDYWGQGTQVTVSS	low polyreactivity
QVQRVESGGGLVQAGGSLRLSCAPSGRTFGYYAMGWYRQAPGKERELVAAISRGGRTNYADSVKGRFTISRDNAKNTVYLQMNSLQPEDTAVYYCAKSGTIPRYTASYSLLDYWGQGTQVTVSS	low polyreactivity
QVQRVESGGGLVQAGGSLRLSCPASGSTLYGYAMGWYRPSPGKERELVAGITRGGSTSYADSEKGRFTISRDNAKNTVYLQMNSLKPEDTAVYYCAARSYPGSPVRYDYWGQGTQVTVSS	high polyreactivity
QVQRVESGGGLVQAGGSLRLSFAAAGGILYPYAMGWYRQAPGKERELVAAITSSGSTYYADSVKGRFTISRDNAKITVYLQMNSLNPEDHAVYYCAITLPTRNKLRSGREYDYWGQGTQVTVSS	low polyreactivity
QVQRVESGGGLVQAGGSLRLSSAASGPIYGDYAMGWYRQEPGKERELVADITWSGGSTYYADSVKGRFTISRDNAKNTVYLQMNSLKPEDTAVYYCNADVWFYYTFDYWGLGTQVTVSS	low polyreactivity
QVQRVESGGGLVQAGGSLRLSSAASGSIFFDYAMRGYRQAPGNERELVAAISGSGGSRYYADSVKGRFTISRDNAKNTVYLQMNSLIPEDTAVYYCAAGYKYFRIRYDYWGQGTQVTVSS	high polyreactivity
QVQRVESGGGLVQAGVSLRLSCASSGITFDVNALGWYRQAPGKERELVAAITAGGNTYYADSVKGRFTISRDKAKTTVYLQMNSLKPEETAVYYCAAVSTSLYWAGYDYWGQGTQVTVSS	low polyreactivity
QVQRVESGGGLVQARGSLRLSCAASGLIFPPNVMGWYRQAPGKESEFVAAITSSGSTNYADSVKGRFTISRDNAKYTVYIQMNSLKPEDTAVYYCARDQTWSYQPWYYLSYPQYEYWGQGTEVTVSS	low polyreactivity
QVQRVESGGGLVQAVGSLRLSCPASGIISVCNARGWYRQAPGKERELVASINSGGSTNYADSVKGRFTISRDNAKNTVYLQMNSLKPEDTAVYYCARLHDIRSPYSGTPVRDLPDEDDYWGQGTQVTVSS	low polyreactivity
QVQRVESGGRLVPPGGSLRLSCAASGRIFYTNAMGCYRQAPGKERELVARITGAGNTYYADSVKGRFTISRDNAKNTVYLQLNSLKPEDTAVYYCTADLYWRGDYWGQGTQVTVSS	high polyreactivity
QVQRVESRGVLVQAGGTLRLSCAASGISFGRNTMGWYRQAPLKERELVATIRSGTNYADSVKGRFTISRDNAKNTVDLQMNSLKPDDTAVDYCAVRYFGGRRSYYWGQGSQVTVSS	high polyreactivity
QVQRVESVGGLVQAGGSLRLICAASGRIFQVNAIGWYRQAPGKERELVAAITYSGGTTYYADSVKGRFTISRDNAKNTVYLQMNSLKPEDTAVYYCAAEGYGALGDPWQYGYEYWGQGTQVTVSS	low polyreactivity
QVQRVETAGRLVQARGSLRLSCAPSGIIFKRNAIGWYRQAPGKEREFVAAISSSGDTTYYADSVKGRFTISRDNAKNTVYLQMNSLKPEDTAVYYCAKPIRTSRARGMYYWGQGTEVTVSS	high polyreactivity
QVQRVVSGGGLVQAGGSLRLSCAASGSIFQGNAMGWYRQAPGQERELVAAIHRSDGRTYYADSVKGRFTISRDNAKNTVYLQMNSLKPEDTAVYYCKVDVLLVHDYVFYSWMDYWGQGSQVTVSS	high polyreactivity
QVQVEDTGGGLVQEGGSHRLSCAASGRTFYYYTMGRYRQPPVKEREFVAAITISGARTYYADSVKGRFTISRDNAKNTVYLQMNSLKPEDTPVYYCAARRRYRSRVTTVGYNYWGQGTQVTVSS	high polyreactivity
QVQVESGGGLVQAGGSLRLSCAASGSIIDQYVMGWYRQAPGKERELVAAISRGGRTYYADSVKGRFTISRDNAKNTVYLQMNSLKPEDTAVYYCAARSDVRGFDYWGQGTQVTVSS	low polyreactivity
QVQVVESGAGLVQAGGSLRISCAASGRNFVANAMGWYRQAPGKERELVAAISIIGAGTYYADSVKGRFTISRDNAKITVYLQMNSLKPEDTAVYYCATQYGWYIFGYWGQGSQVTVSS	high polyreactivity
